These results are taken from publication PMC12222027, “In situ structure of a bacterial flagellar motor at subnanometre resolution reveals adaptations for increased torque” (Nature Microbiology, 2025).

Broadly, the stoichiometry N is the number of molecules, sites or subunits per partner or assembly.

The target of data set [1] is FlgP (basal disk protein, C. jejuni 81-176, in the motor in situ) (C. jejuni 81-176 (endogenous in minicells)). In words: cryo-EM structure; in situ single-particle analysis of motors in C. jejuni ΔflhG ΔflaAB minicells; C17 focused refinement of the periplasmic scaffold and first basal disk ring (7.9 Å); AlphaFold2 models docked or flexibly fitted into the map.
Data set [2] concerns the molecule itself. Described as above.

Regarding “FlgP (basal disk protein, C. jejuni 81-176, in the motor in situ) (natural protein)”, the stoichiometry N in data set [1] came out at 51.

B1: FliL (C. jejuni 81-176, endogenous) (natural protein)
chain: MDEELENEETKKKKGGSLVIIIVILLFVLLLSIMGVIAWLISSSSSDESEVKEAPKEEAKADKPKVSAPTQRGSDFANIGPMYPLDPFTLNLLSDSGSRYVKCTIELEQNSELLKPELDKKVPVIRDIIIRTLTAKTFEEVSTQKGKERLKDELVGKINEILTDGFIKNVYFTDFVVS
notes: FliL, flagellar protein forming an arc of four copies around the MotB linker in each asymmetric unit; source: endogenous, C. jejuni 81-176: ΔflhG ΔflaAB minicells imaged in situ; lysates of formaldehyde-crosslinked ΔpflA or ΔpflB cells carrying the PflA-FLAG or PflB-FLAG plasmid
Regarding B1, in data set [2], the “stoichiometry N” value is 4.
